± gives the uncertainty stated by the source.

Here are results for 167 variants from the Human Domainome abundance scans (Beltran et al. 2025).

The chains are these.
B1: Lysine-specific demethylase 5C, residues 319 to 373; numbered along this chain, P41229 (parent)
chain: AQFIESYVCRMCSRGDEDDKLLLCDGCDDNYHIFCLLPPLPEIPKGVWRCPKCVM

Variants of B1 are the subject of this data set. The data set can be described thus: abundance fitness (aPCA) (normalised: wild type 0, dead -1); higher = more abundant; growth selection in yeast, the domain comes from the species named. Conditions: Homo sapiens.
As for D18H, the abundance fitness was 0.324 ± 0.18.

On to D18F, for which the abundance fitness was 0.157 ± 0.14.

With L23K, the abundance fitness stood at 0.169 ± 0.1.

L23Q: the abundance fitness was -0.073 ± 0.14.

As for L23W, the abundance fitness is -0.224 ± 0.12.

On to L23E, for which the abundance fitness is -0.078 ± 0.13.

Take L23P: the abundance fitness was -0.017 ± 0.13.

Turning to L23S, the abundance fitness came to 0.148 ± 0.084.

On to L23G, for which the abundance fitness was -0.086 ± 0.093.

In the case of L23H, the abundance fitness was -0.302 ± 0.28.

In the case of L23C, the abundance fitness is -0.122 ± 0.14.

For C9Y, the abundance fitness was -0.955 ± 0.22.

For the variant C9H, the abundance fitness is -0.798 ± 0.28.

Regarding C9F, the abundance fitness is -0.659 ± 0.23.

In the case of C9A, the abundance fitness was -0.797 ± 0.13.

Turning to C9T, the abundance fitness was -0.726 ± 0.15.

C12Y: the abundance fitness is -0.87 ± 0.25.

On to C12T, for which the abundance fitness was -0.683 ± 0.26.

Regarding C12E, the abundance fitness was -0.797 ± 0.33.

Regarding C12H, the abundance fitness is -0.825 ± 0.26.

On to C12L, for which the abundance fitness was -0.344 ± 0.09.

For the variant C12P, the abundance fitness was -0.52 ± 0.17.

In the case of C12G, the abundance fitness was -0.756 ± 0.24.

C12K: the abundance fitness is -0.435 ± 0.18.

For R49W, the abundance fitness was -0.085 ± 0.31.

For R49A, the abundance fitness was -0.262 ± 0.16.

Turning to R49E, the abundance fitness was -0.178 ± 0.17.

Regarding R49D, the abundance fitness is -0.865 ± 0.34.

Regarding R49I, the abundance fitness was -0.176 ± 0.2.

For E42K, the abundance fitness was -0.506 ± 0.17.

On to E42N, for which the abundance fitness is -0.034 ± 0.17.

Consider E42G, for which the abundance fitness was -0.157 ± 0.15.

E42Y: the abundance fitness was -0.125 ± 0.16.

As to E42F, the abundance fitness is -0.231 ± 0.17.

As for E42C, the abundance fitness is -0.245 ± 0.15.

Consider H32V, for which the abundance fitness was -0.723 ± 0.11.

Take H32A: the abundance fitness is -0.756 ± 0.17.

On to H32C, for which the abundance fitness is -0.677 ± 0.16.

Turning to H32M, the abundance fitness was -1.02 ± 0.16.

For the variant H32F, the abundance fitness was -0.697 ± 0.22.

Take H32N: the abundance fitness was -0.672 ± 0.3.

In the case of H32I, the abundance fitness was -0.859 ± 0.23.

Regarding H32W, the abundance fitness is -0.881 ± 0.18.

As to Y7R, the abundance fitness came out at 0.14 ± 0.091.

Regarding Y7L, the abundance fitness is -0.057 ± 0.1.

Turning to Y7V, the abundance fitness was -0.121 ± 0.12.

In the case of Y7H, the abundance fitness was -0.09 ± 0.16.

For the variant G46P, the abundance fitness was -0.42 ± 0.31.

With G46D, the abundance fitness is 0.043 ± 0.21.

For G46H, the abundance fitness came to 0.132 ± 0.23.

Turning to G46K, the abundance fitness was -0.383 ± 0.21.

G46I: the abundance fitness was -0.538 ± 0.21.

In the case of G46W, the abundance fitness was -0.464 ± 0.24.

As for G46E, the abundance fitness was 0.364 ± 0.26.

Turning to G46Y, the abundance fitness was -0.366 ± 0.18.

As for G46Q, the abundance fitness is -0.093 ± 0.29.

For the variant P41K, the abundance fitness is -0.092 ± 0.23.

On to P41V, for which the abundance fitness was -0.051 ± 0.13.

P41L: the abundance fitness turned out to be 0.135 ± 0.1.

In the case of P41W, the abundance fitness is -0.36 ± 0.13.

On to P41H, for which the abundance fitness is -0.286 ± 0.23.

Turning to P39A, the abundance fitness was -0.018 ± 0.11.

Consider P39Q, for which the abundance fitness is -0.276 ± 0.16.

Take P39H: the abundance fitness was -0.787 ± 0.3.

For the variant P39W, the abundance fitness was -0.752 ± 0.27.

With P39E, the abundance fitness was -0.025 ± 0.16.

With P39D, the abundance fitness was -0.233 ± 0.18.

P39I: the abundance fitness is -0.076 ± 0.19.

As to M55S, the abundance fitness stood at 0.295 ± 0.24.

M55T: the abundance fitness was -0.183 ± 0.31.

For M55P, the abundance fitness turned out to be 0.446 ± 0.44.

With S13V, the abundance fitness is -0.121 ± 0.1.

As to S13Q, the abundance fitness was -0.183 ± 0.16.

Consider S13E, for which the abundance fitness came to 0.419 ± 0.15.

As for S13Y, the abundance fitness is -0.149 ± 0.15.

S13R: the abundance fitness stood at 0.007 ± 0.09.

For the variant S13C, the abundance fitness is -0.171 ± 0.14.

For S13A, the abundance fitness is -0.231 ± 0.1.

As to C35E, the abundance fitness was -0.794 ± 0.26.

Regarding C35Y, the abundance fitness is -0.786 ± 0.39.

With C35A, the abundance fitness was -0.83 ± 0.15.

Turning to W48Q, the abundance fitness is -0.566 ± 0.17.

As for W48C, the abundance fitness is -1.15 ± 0.44.

Take W48I: the abundance fitness was -0.14 ± 0.27.

Consider W48S, for which the abundance fitness was -0.839 ± 0.15.

For W48M, the abundance fitness is -0.671 ± 0.17.

As for W48N, the abundance fitness is -0.853 ± 0.41.

In the case of W48D, the abundance fitness is -0.686 ± 0.46.

For L36I, the abundance fitness was -0.134 ± 0.18.

As to L36S, the abundance fitness was -0.157 ± 0.091.

As to L36W, the abundance fitness is -0.237 ± 0.2.

On to L36E, for which the abundance fitness was -0.551 ± 0.21.

As to L36D, the abundance fitness is -0.898 ± 0.32.

For the variant L36Q, the abundance fitness is -0.555 ± 0.25.

Take L36G: the abundance fitness was -0.688 ± 0.17.

As for L36F, the abundance fitness is -0.26 ± 0.17.

Turning to L36V, the abundance fitness is -0.118 ± 0.1.

As to E17S, the abundance fitness is -0.052 ± 0.1.

For the variant E17A, the abundance fitness is 0.123 ± 0.11.

For the variant E17D, the abundance fitness was found to be 0.078 ± 0.13.

With E17P, the abundance fitness is -0.1 ± 0.14.

For E17G, the abundance fitness amounted to 0.023 ± 0.091.

For E17W, the abundance fitness was -0.176 ± 0.16.

For the variant E17K, the abundance fitness is -0.122 ± 0.16.

On to E17I, for which the abundance fitness is -0.052 ± 0.21.

Take E17T: the abundance fitness is 0.087 ± 0.14.

With E17Q, the abundance fitness is -0.064 ± 0.12.

Turning to E17N, the abundance fitness came out at 0.257 ± 0.22.

Consider E17H, for which the abundance fitness was -0.245 ± 0.23.

As to E17Y, the abundance fitness was -0.285 ± 0.24.

In the case of E17V, the abundance fitness turned out to be 0.22 ± 0.11.

As to I43Q, the abundance fitness came out at 0.076 ± 0.14.

Take I43R: the abundance fitness is -0.022 ± 0.092.

In the case of I43G, the abundance fitness is -0.302 ± 0.12.

Take I43W: the abundance fitness is -0.202 ± 0.14.

Turning to I43L, the abundance fitness worked out at 0.101 ± 0.1.

I43D: the abundance fitness was -0.462 ± 0.36.

I43P: the abundance fitness was -0.307 ± 0.17.

For the variant I43M, the abundance fitness turned out to be 0.156 ± 0.14.

For the variant I43Y, the abundance fitness was -0.333 ± 0.16.

Consider D28R, for which the abundance fitness was determined as 0.225 ± 0.13.

As to D28W, the abundance fitness is -0.244 ± 0.21.

For D28I, the abundance fitness stood at 0.327 ± 0.39.

In the case of D28A, the abundance fitness is 0.092 ± 0.16.

Regarding D28C, the abundance fitness was -0.359 ± 0.32.

For G15F, the abundance fitness was -0.008 ± 0.1.

Take G15R: the abundance fitness came out at 0.035 ± 0.075.

For the variant G15K, the abundance fitness was determined as 0.086 ± 0.089.

Take G15Q: the abundance fitness was -0.124 ± 0.086.

On to G15Y, for which the abundance fitness was -0.027 ± 0.11.

Regarding G15M, the abundance fitness was -0.142 ± 0.1.

For G15I, the abundance fitness is -0.065 ± 0.1.

As for G15T, the abundance fitness came to 0.029 ± 0.076.

On to G15E, for which the abundance fitness amounted to 0.049 ± 0.12.

Turning to G15A, the abundance fitness is -0.037 ± 0.084.

Take F34R: the abundance fitness is 0.067 ± 0.11.

As for F34Q, the abundance fitness is -0.053 ± 0.21.

Turning to F34M, the abundance fitness was -0.165 ± 0.18.

On to F34A, for which the abundance fitness was -0.162 ± 0.1.

F34Y: the abundance fitness amounted to 0.191 ± 0.16.

For C53S, the abundance fitness is -0.835 ± 0.16.

Turning to C53R, the abundance fitness is -1 ± 0.17.

In the case of C53I, the abundance fitness was -0.941 ± 0.39.

Consider C53Y, for which the abundance fitness was -1.01 ± 0.3.

For C53G, the abundance fitness was -0.865 ± 0.15.

C53W: the abundance fitness was -1.08 ± 0.27.

Take C53T: the abundance fitness was -0.939 ± 0.29.

For I4M, the abundance fitness was found to be 0.115 ± 0.14.

Consider I4D, for which the abundance fitness is -0.058 ± 0.18.

Consider I4E, for which the abundance fitness is -0.145 ± 0.19.

For the variant I4F, the abundance fitness is -0.098 ± 0.16.

Take I4T: the abundance fitness is 0.201 ± 0.13.

As to I4L, the abundance fitness was -0.338 ± 0.11.

In the case of V47Y, the abundance fitness was -0.058 ± 0.19.

As to V47M, the abundance fitness was -0.157 ± 0.18.

Regarding V47Q, the abundance fitness was determined as 0.208 ± 0.2.

With V47F, the abundance fitness worked out at 0.082 ± 0.23.

As for V47G, the abundance fitness is -0.061 ± 0.091.

Turning to V47H, the abundance fitness was -0.064 ± 0.22.

V47I: the abundance fitness is -0.132 ± 0.18.

For L21A, the abundance fitness was -0.426 ± 0.1.

As to L21T, the abundance fitness is -0.164 ± 0.09.

Consider L21C, for which the abundance fitness was -0.304 ± 0.15.

Regarding L21R, the abundance fitness was -0.221 ± 0.11.

In the case of L21E, the abundance fitness is -0.531 ± 0.27.

On to L21V, for which the abundance fitness is -0.348 ± 0.11.

As for L22R, the abundance fitness is -0.169 ± 0.078.
